Data reported in patent publication US20090010874A1 (published 2009).
Substitutions are numbered along the chain they refer to. Numbers in names are those of the source.

T1: human IL-4 receptor alpha chain on cells (TF-1 cells, primary human T-cell blasts and B cells) (human, UniProt P24394 26-825)
T1 sequence (looked up): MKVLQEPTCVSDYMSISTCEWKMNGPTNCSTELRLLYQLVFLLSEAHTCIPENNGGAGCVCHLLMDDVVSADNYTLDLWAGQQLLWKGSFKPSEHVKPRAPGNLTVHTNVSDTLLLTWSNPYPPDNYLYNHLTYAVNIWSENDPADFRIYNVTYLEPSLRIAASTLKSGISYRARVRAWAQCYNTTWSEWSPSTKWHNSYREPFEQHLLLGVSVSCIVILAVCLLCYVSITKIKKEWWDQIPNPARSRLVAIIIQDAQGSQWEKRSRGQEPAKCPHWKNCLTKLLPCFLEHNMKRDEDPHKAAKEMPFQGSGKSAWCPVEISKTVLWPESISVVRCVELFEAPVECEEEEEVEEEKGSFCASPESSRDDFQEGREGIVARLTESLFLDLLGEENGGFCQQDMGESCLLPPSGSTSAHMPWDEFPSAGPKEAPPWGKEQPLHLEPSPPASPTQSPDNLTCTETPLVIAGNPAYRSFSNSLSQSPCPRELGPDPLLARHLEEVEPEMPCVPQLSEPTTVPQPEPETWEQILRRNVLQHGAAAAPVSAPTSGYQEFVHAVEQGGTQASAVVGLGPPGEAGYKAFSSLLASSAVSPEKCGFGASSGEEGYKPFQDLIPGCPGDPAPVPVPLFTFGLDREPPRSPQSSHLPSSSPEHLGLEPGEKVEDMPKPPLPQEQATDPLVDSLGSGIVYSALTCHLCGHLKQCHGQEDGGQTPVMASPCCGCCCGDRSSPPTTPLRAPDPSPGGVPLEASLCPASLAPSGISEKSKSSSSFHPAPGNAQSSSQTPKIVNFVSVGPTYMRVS

T2: IL-4 receptor (immobilized on BIAcore CM5 chip) (human, UniProt P24394 26-232, limits assumed)
T2 construct: also called IL-4Rα; IL-4 receptor alpha chain
T2 sequence (looked up): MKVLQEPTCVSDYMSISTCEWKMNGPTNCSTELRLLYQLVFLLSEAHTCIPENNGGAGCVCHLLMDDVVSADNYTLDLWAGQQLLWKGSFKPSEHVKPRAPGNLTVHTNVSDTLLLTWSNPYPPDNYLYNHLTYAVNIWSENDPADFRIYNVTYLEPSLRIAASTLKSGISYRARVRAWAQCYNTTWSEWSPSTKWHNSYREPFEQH

B1: IL-4RA (IL-4 double mutein R121D/Y124D, unPEGylated) (ligand)
chain: MHKCDITLQEIIKTLNSLTEQKTLCTELTVTDIFAASKNTTEKETFCRAATVLRQFYSHHEKDTRCLGATAQQFHRHKQLIRFLKRLDRNLWGLAGLNSCPVKEANQSTLENFLERLKTIMDEKDSKCSS
notes: also called BAY 16-9996; IL-4DM
B2: IL4-RE-K37C, PEGylated with linear 22 kD mPEG-maleimide (ligand)
chain: B1 chain with K38C
modifications: linear 22 kD methoxy-polyethylene glycol-maleimide on Cys 37 (numbered according to wild type IL-4)
notes: also called PEG-IL4RE
B3: IL4-RE-A104C, PEGylated with linear 22 kD mPEG-maleimide (ligand)
chain: B1 chain with A105C
modifications: linear 22 kD methoxy-polyethylene glycol-maleimide on Cys 104 (numbered according to wild type IL-4)
notes: also called PEG-IL4RE
B4: IL4-RE-N38C, PEGylated with linear 22 kD mPEG-maleimide (ligand)
chain: B1 chain with N39C
modifications: linear 22 kD methoxy-polyethylene glycol-maleimide on Cys 38 (numbered according to wild type IL-4)
notes: also called PEG-IL4RE
B5: IL4-RE-Q106C, PEGylated with linear 22 kD mPEG-maleimide (ligand)
chain: B1 chain with Q107C
modifications: linear 22 kD methoxy-polyethylene glycol-maleimide on Cys 106 (numbered according to wild type IL-4)
notes: also called PEG-IL4RE
B6: IL4-RE-N105C, PEGylated with linear 22 kD mPEG-maleimide (ligand)
chain: B1 chain with N106C
modifications: linear 22 kD methoxy-polyethylene glycol-maleimide on Cys 105 (numbered according to wild type IL-4)
notes: also called PEG-IL4RE
B7: IL4-RE-S36C, PEGylated with linear 22 kD mPEG-maleimide (ligand)
chain: B1 chain with S37C
modifications: linear 22 kD methoxy-polyethylene glycol-maleimide on Cys 36 (numbered according to wild type IL-4)
notes: also called PEG-IL4RE
B8: IL4-RE-T28C, PEGylated with linear 22 kD mPEG-maleimide (ligand)
chain: B1 chain with T29C
modifications: linear 22 kD methoxy-polyethylene glycol-maleimide on Cys 28 (numbered according to wild type IL-4)
notes: also called PEG-IL4RE
B9: IL4-RE-T13D (T13D/R121D/Y124D), unPEGylated (ligand)
chain: B1 chain with T14D
B10: PEGylated T13D-N38C with 40 kDa branched PEG (IL4-RE-T13D-N38C) (ligand)
chain: B1 chain with T14D, N39C
modifications: 40 kDa branched maleimide-PEG on Cys 38 (numbered according to wild type IL-4)
B11: IL-4TM-A104C (R121D/Y124D/A104C) PEGylated with 40 kDa branched maleimide-PEG (ligand)
chain: B1 chain with A105C
modifications: 40 kDa branched maleimide-PEG on Cys 104 (numbered according to wild type IL-4)
B12: IL-4TM-A104C (R121D/Y124D/A104C) PEGylated with 30 kDa linear maleimide-PEG (ligand)
chain: B1 chain with A105C
modifications: 30 kDa linear maleimide-PEG on Cys 104 (numbered according to wild type IL-4)
B13: IL-4TM-N38C (R121D/Y124D/N38C) PEGylated with 40 kDa branched maleimide-PEG (ligand)
chain: B1 chain with N39C
modifications: 40 kDa branched maleimide-PEG on Cys 38 (numbered according to wild type IL-4)

The binders below were run against T1, human IL-4 receptor alpha chain on … (assay: cell-based or functional assay).

| B-cell IC50, nM (proliferation to IL-4) [nM] | T-cell blast IC50, nM (proliferation to IL-4) [nM] | Binder |
| --- | --- | --- |
| 0.86 | 3.22 | B1 |
| 3.73 | 13.9 | B2 |
| 3.29 | 4.67 | B3 |
| 3.33 | 9.94 | B4 |

The binders below were run against T2, IL-4 receptor (immobilized on BIAcore …) (assay: BIAcore SPR, IL-4 receptor amine-coupled to CM5 chip, mutein injected, direct binding kinetics).
Description: IL-4 receptor was immobilized on a BIAcore CM5 research grade sensor chip through amine coupling. The sensor surface was activated with an EDC/NHS pulse. IL-4 receptor was dissolved in 10 mM acetate buffer (pH 5.0) and injected into flowcell 2 followed by a pulse of 1.0M ethanolamine-HCL to deactivate the surface. The immobilization level for the receptor was ˜300 RU. Flowcell 1 was also activated without a ligand to function as a blank. The Biacore Wizard was used to perform kinetics analysis. Candidate IL4RE antagonists were diluted in HBS-EP (running buffer) and injected at 30 ul/minute flow rate for 3 minutes and a dissociation time of 15 minutes. Regeneration of the chip was performed by two 30 second injections of 10 mM Glycine pH2.5 (flow 100 ul/min) to baseline prior to next injection in the concentration series. Dissociation constant (KD) values were calculated for each candidate based on direct binding kinetics (Table 5).

| Kd [nM] | Binder |
| --- | --- |
| 0.11 | B1 |
| 0.52 | B5 |
| 0.74 | B2 |
| 0.59 | B6 |
| 1.15 | B7 |
| 0.56 | B3 |
| 0.89 | B8 |
| 0.77 | B4 |

Molecular target: T1, human IL-4 receptor alpha chain on …
Test: cell-based or functional assay
Remark: another data set of the same source

| Fold increase in IC50 (relative to IL-4DM), primary T cell blasts [fold] | IC50 (nM), primary T cell blast proliferation to IL-4 [nM] | Binder |
| --- | --- | --- |
| 1 | 1.07 | B1 |
| 0.67 | 0.714 | B9 |
| 3.1 | 3.28 | B10 |
| 7.4 | 8 | B11 |
| 4.6 | 4.93 | B12 |
| 2.3 | 2.43 | B13 |

Molecular target: T1, human IL-4 receptor alpha chain on …
Test: cell-based or functional assay
Remark: another data set of the same source

| Fold increase in IC50 (relative to IL-4DM), primary B cells [fold] | IC50 (nM), primary B cell proliferation to anti-CD40 and IL-4 [nM] | Binder |
| --- | --- | --- |
| 1 | 1.71 | B1 |
| 0.3 | 0.5 | B9 |
| 1.4 | 2.43 | B10 |
| 11.3 | 19.4 | B11 |
| 7.6 | 13 | B12 |
| 4 | 6.85 | B13 |

Molecular target: T1, human IL-4 receptor alpha chain on …
Test: cell-based or functional assay
Remark: another data set of the same source

| loss of activity in the TF-1 activity assay against PEGylated 38C [fold] | Binder |
| --- | --- |
| ~2 | B11 |

Molecular target: T1, human IL-4 receptor alpha chain on …
Test: cell-based or functional assay
Remark: another data set of the same source

| TF-1/IL-4 IC50 [nM] | TF-1/IL-13 IC50 [nM] | Binder |
| --- | --- | --- |
| 0.56 | 1.17 | B1 |
| 2.44 | 1.95 | B5 |
| 0.82 | 1.22 | B2 |
| 2.26 | 2.11 | B6 |
| 1.2 | 1.21 | B7 |
| 0.55 | 1.34 | B3 |
| 2.35 | 2.87 | B8 |
| 0.7 | 1.24 | B4 |
